According to patent US20190367619A1 (ARGENX, published 2019):
Positions count from the first letter of the chain named.

B1: 6A08 mouse IgG1 (antibody, V domains shown)
VH: QVQLVESGGGLVQPGGSLRLSCAASGFTFSSYAMSWVRQAPGKGPEWVSAINRGGGSTYYADSVKGRFTISRDNAKNTLYLQMNSLKPEDAAVYYCATPGDRLWYYRYDYWGQGAQVTVSS
VL: QTVVTQEPSLSVSPGGTVTLTCGLSSGSVTSSNYPGWYQQTPGQAPRLLIYNTNSRYSGVPNRFSGSISGNKAALIISGAQPEDEADYHCALNRVRGTYRVFGGGTHLTVL
notes: also called 6A08 mIgG1
B2: 2C07 mouse IgG1 (antibody, V domains shown)
VH: ELQLVESGGGLVQPGGSLRLSCAASGFTFSSYAMSWVRQAPGKGLEWVSNINSGGGSTGYADSVKGRFTISRDNAKNTLYLQMNSLKPEDMAVYYCAKYLRTYYPNAAFGMDYWGKGTLVTVSS
VL: QAVLTQPSAVSVSLGQTARITCQGGNFGRYYASWYQQKPGQAPVLVIYRDSERPSGIPERFSGSSSGDTATLTISGAQAEDEADYYCQSGRSSDNAVFGGGTHLTGL
notes: VH on mouse IgG1 heavy chain constant domains (CH1-CH2-CH3), VL on mouse lambda light chain constant domain; also called 2C07 mIgG1
B3: 6F06 mouse IgG1 (antibody, V domains shown)
VH: QVQLVESGGGLVQPGGSLRLSCAASEFTFSRYSMSWVRQAPGKGLEWVSTINSGGGSTSYVDSVKGRFTISRDNAKNTLYLQMNSLKPEDTAVYYCTKSQGGISFSTQYGMDYWGKGTLVTVSS
VL: B2 VL with Q1N, A2F, V3M, S33N, R49K, A83S, R91S, S92V, T105A, G106V
notes: also called 6F06 mIgG1
B4: 6B06 mouse IgG1 (antibody, V domains shown)
VH: QVQRQESGPGLVKPSQTLSLTCTVSGGSITTNYYSWSWIRQPPGKGLEWIGYIAYSGSTSYSPSLKSRTSISRDTSNNQFSLQLSSVTPEDTAVYYCARSRSSPTTFGMDYWGKGTLVTVSS
VL: B2 VL with Q1S, A2S, V3A, A32V, Q36T, R49Q, S55T, R91T, A96I, G106V
notes: also called 6B06 mIgG1
B5: 6E10 mouse IgG1 (antibody, V domains shown)
VH: QLQLVESGGGLVQPGGSLRLSCAASGFTFSSYWMYWVRQAPGKGLEWVSAINTGGGSTYYADSVKGRFTISRDNAKNTLYLQMNSLKPEDTALYYCARAGSGVAGTGYDYWGQGTQVTVSS
VL: B2 VL with A2P, T5N, R29Y, A32V, E52G, R91S, G106V
notes: also called 6E010; 6E10 mIgG1

Molecular target: T1, TEV-cleaved wild-type recombinant human galectin-10 (soluble, in Fab complexes, or as recombinant galectin-10 … (human, UniProt Q05315 1-142))
T1 sequence: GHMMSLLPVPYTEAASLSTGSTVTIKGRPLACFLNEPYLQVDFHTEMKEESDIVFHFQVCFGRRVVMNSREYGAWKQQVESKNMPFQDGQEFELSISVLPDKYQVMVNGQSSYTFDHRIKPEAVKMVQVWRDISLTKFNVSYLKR
Experiment: cell-based or functional assay

B1 and B2 cannot be ordered by “100% Solubilization of CLC (Conc uM)” value: > 10 µM for the first, > 2.2 µM for the second.

Going from B3 to B4, the “100% Solubilization of CLC (Conc uM)” value rises from 7.57 µM to > 10 µM.

In the case of B5, the “100% Solubilization of CLC (Conc uM)” value is reported as 10.5 µM.

Molecular target: T2, human galectin-10-His (recombinant human galectin-10 with TEV-cleavable N-terminal His-tag) (human)
T2 construct: SEC-MALLS: dimer in solution; also called Gal10-His; humanGal10-His
T2 chain: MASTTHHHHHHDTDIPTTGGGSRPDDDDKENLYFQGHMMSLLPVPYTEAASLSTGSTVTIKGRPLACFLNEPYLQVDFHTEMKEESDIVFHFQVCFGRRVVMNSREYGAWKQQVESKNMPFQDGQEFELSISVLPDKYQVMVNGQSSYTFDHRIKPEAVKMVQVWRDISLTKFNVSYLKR
Experiment: ELISA, mouse IgG1 on coated galectin-10-His (0.2 ug/mL)
Procedure: In a similar setup to that used during the characterization of the scFv-human Fc molecules, the relative binding affinities of the 10 mouse IgG1 antibodies were analyzed by ELISA. A Maxisorp plate was coated overnight with 0.2 μg/mL of galectin-10-His. Then a serial dilution of each clone (from 100 nM, dilution 1/4, 12 points of dilutions) was incubated on coated galectin-10. After several washing steps, detection of the bound mouse IgG1 was carried out with an anti-mouse Fc-HRP antibody. Absorbance was measured at 450 nm (reference at 620 nm) with Tecan instrument. A mouse IgG1 isotype control was used as negative control. A polyclonal anti-galectin-10 antibody was used as positive control for the coating of galectin-10. The raw data (OD values) were plotted on GraphPad Prism 7.01. The EC50 values for each antibody, calculated with a non-linear regression (log(agonist) vs. response Variable slope (four parameters)), are reported in Table 7 below.

In order of falling Bmax:
1. B4  3.28 OD
2. B1  3.2 OD
3. B2  2.95 OD
4. B3  2.93 OD
5. B5  2.4 OD

In order of rising EC50:
1. B2  0.08 nM
2. B3  0.08 nM
3. B4  0.08 nM
4. B1  0.15 nM
5. B5  0.17 nM

Molecular target: T2, human galectin-10-His (recombinant …)
Experiment: BLI tandem on galectin-10-His; buffer in place of the saturating antibody
Procedure: (§1) In order to identify the galectin-10 binding sites of the different clones, an epitope mapping method (TANDEM), using the BLI technology, was established. Briefly, the galectin-10-His was captured on anti-HIS 1K sensor tips, before incubation with an excess of one antibody (called the “saturating” antibody) then directly transferred to a solution containing the “competitor” antibody at a suboptimal concentration. If the “saturating” and the competitor antibody bind to the same binding sites, no binding of “competitor” will be detected (expressed in nm shift).

In order of rising “binding signal (nm)” value:
1. B2  0.8 nm
2. B4  0.98 nm
3. B1  1.08 nm
4. B3  1.22 nm
5. B5  1.38 nm

Molecular target: T2, human galectin-10-His (recombinant …)
Experiment: BLI tandem on galectin-10-His; competitor: saturating 1C09 mIgG1 (10 ug/mL)
Procedure: as §1

In order of falling “binding signal (nm)” value:
1. B5  0.03 nm
2. B4  0.01 nm
3. B1  0 nm
4. B2  0 nm
5. B3  0 nm

Molecular target: T2, human galectin-10-His (recombinant …)
Experiment: BLI tandem on galectin-10-His; competitor: saturating 1D11 mIgG1 (10 ug/mL)
Procedure: as §1

In order of rising “binding signal (nm)” value:
1. B2  0.04 nm
2. B1  0.05 nm
3. B3  0.06 nm
4. B4  0.07 nm
5. B5  0.1 nm

Molecular target: T2, human galectin-10-His (recombinant …)
Experiment: BLI tandem on galectin-10-His; competitor: saturating 2C07 mIgG1 (10 ug/mL)
Procedure: as §1

In order of rising “binding signal (nm)” value:
1. B2  0.03 nm
2. B3  0.03 nm
3. B4  0.04 nm
4. B1  0.05 nm
5. B5  0.06 nm

Molecular target: T2, human galectin-10-His (recombinant …)
Experiment: BLI tandem on galectin-10-His; competitor: saturating 2F09 mIgG1 (10 ug/mL)
Procedure: as §1

In order of rising “binding signal (nm)” value:
1. B2  -0.01 nm
2. B1  0 nm
3. B3  0 nm
4. B4  0 nm
5. B5  0 nm

Molecular target: T2, human galectin-10-His (recombinant …)
Experiment: BLI tandem on galectin-10-His; competitor: saturating 4E08 mIgG1 (10 ug/mL)
Procedure: as §1

In order of falling “binding signal (nm)” value:
1. B5  0.1 nm
2. B4  0.03 nm
3. B3  0.02 nm
4. B1  -0.05 nm
5. B2  -0.05 nm

Molecular target: T2, human galectin-10-His (recombinant …)
Experiment: BLI tandem on galectin-10-His; competitor: saturating 6A05 mIgG1 (10 ug/mL)
Procedure: as §1

In order of falling “binding signal (nm)” value:
1. B5  0.09 nm
2. B4  0.06 nm
3. B1  0.05 nm
4. B3  0.05 nm
5. B2  0.04 nm

Molecular target: T2, human galectin-10-His (recombinant …)
Experiment: BLI tandem on galectin-10-His; competitor: saturating 6A08 mIgG1 (10 ug/mL)
Procedure: as §1

In order of falling “binding signal (nm)” value:
1. B5  0.04 nm
2. B4  0.02 nm
3. B3  0 nm
4. B2  -0.01 nm
5. B1  -0.04 nm

Molecular target: T2, human galectin-10-His (recombinant …)
Experiment: BLI tandem on galectin-10-His; competitor: saturating 6B06 mIgG1 (10 ug/mL)
Procedure: as §1

In order of falling “binding signal (nm)” value:
1. B1  0.05 nm
2. B2  0.04 nm
3. B5  0.04 nm
4. B3  0.03 nm
5. B4  0.03 nm

Molecular target: T2, human galectin-10-His (recombinant …)
Experiment: BLI tandem on galectin-10-His; competitor: saturating 6E10 mIgG1 (10 ug/mL)
Procedure: as §1

In order of rising “binding signal (nm)” value:
1. B1  -0.05 nm
2. B2  -0.04 nm
3. B3  -0.03 nm
4. B4  -0.02 nm
5. B5  0 nm

Molecular target: T2, human galectin-10-His (recombinant …)
Experiment: BLI tandem on galectin-10-His; competitor: saturating 6F06 mIgG1 (10 ug/mL)
Procedure: as §1

In order of rising “binding signal (nm)” value:
1. B2  0.04 nm
2. B3  0.04 nm
3. B1  0.05 nm
4. B4  0.05 nm
5. B5  0.07 nm

Molecular target: T2, human galectin-10-His (recombinant …)
Experiment: BLI tandem on galectin-10-His; isotype control as saturating antibody (10 ug/mL)
Procedure: as §1

In order of falling “binding signal (nm)” value:
1. B5  1.34 nm
2. B3  1.15 nm
3. B1  1.04 nm
4. B4  0.94 nm
5. B2  0.73 nm

Molecular target: T2, human galectin-10-His (recombinant …)
Experiment: SPR Biacore T3000, mouse IgG1 captured by anti-mouse Fc, galectin-10-His as analyte
Procedure: The binding capacity of the mouse IgG1 antibodies to galectin-10 was analyzed on Biacore T3000. For this purpose, a capture approach was set up. A CM5 Chip was coated with polyclonal anti-mouse Fc at 8000 RU, then a fixed concentration of the mouse IgG1 antibody panel (1.5 μg/mL), diluted in HBS-EP pH7.4, was captured to reach a binding signal around 150 RU. Finally, a serial dilution of galectin-10-His (serial dilution, 1 over 2 from 5 μg/mL) diluted in HBS-EP pH7.4 was injected. Raw data were analyzed via BIA evaluation software with a blank subtraction (4-3). The kd/KD and Rmax of each mAb to galectin-10-His was determined using the Fit Kinetics simultaneous ka/kd/Binding with mass transfer/Local Rmax on BIA evaluation software.

In order of falling Kd:
1. B1  1 nM
2. B3  0.7 nM
3. B2  0.5 nM
4. B5  0.5 nM
5. B4  0.3 nM

In order of falling koff:
1. B3  0.00487 s⁻¹
2. B4  0.00306 s⁻¹
3. B5  0.00082 s⁻¹
4. B1  0.00067 s⁻¹
5. B2  0.00036 s⁻¹
